In paper doi:10.1101/779439:

Biological target: peptide of CD3 zeta chain containing SNID2 (residues 115-135)
Assay: ITC

Row | Substance | Kd [µM]
1 | HIV-2 consensus Nef core domain (residues 90-256) (domain or fragment) | 12
2 | SIVmac239 Nef full core domain (residues 90-263), His-tagged, as used for ITC (domain or fragment) | 5
